Assay results taken from article PMC6504953, “Cauliflower mosaic virus transactivator protein (TAV) can suppress nonsense-mediated decay by targeting VARICOSE, a scaffold protein of the decapping complex” (Scientific Reports, 2019).

Target: T1, Cauliflower mosaic virus translation transactivator/viroplasmin (TAV), strain CM1841, fused to the Gal4 … (Cauliflower mosaic virus (strain CM1841), UniProt P03558 1-520)
T1 sequence: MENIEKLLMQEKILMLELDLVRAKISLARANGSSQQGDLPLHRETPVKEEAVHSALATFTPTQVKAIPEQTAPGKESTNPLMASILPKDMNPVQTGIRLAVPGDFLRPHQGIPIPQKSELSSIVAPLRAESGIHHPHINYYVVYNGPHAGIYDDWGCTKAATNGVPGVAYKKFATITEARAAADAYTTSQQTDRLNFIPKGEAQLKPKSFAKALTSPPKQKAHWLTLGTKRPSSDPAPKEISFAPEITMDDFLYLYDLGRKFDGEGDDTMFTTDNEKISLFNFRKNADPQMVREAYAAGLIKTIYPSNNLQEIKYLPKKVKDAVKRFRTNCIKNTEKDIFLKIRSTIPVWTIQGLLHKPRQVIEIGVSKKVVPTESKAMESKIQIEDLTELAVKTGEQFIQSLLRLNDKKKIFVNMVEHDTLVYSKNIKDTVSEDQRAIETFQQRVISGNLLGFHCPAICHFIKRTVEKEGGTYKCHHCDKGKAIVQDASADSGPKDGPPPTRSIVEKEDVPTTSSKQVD
Test: cell-based or functional assay

B1: VARICOSE (VCS), entire protein, fused to the Gal4 activation domain (natural protein, A. thaliana, UniProt Q9LTT8 1-1344, looked up)
chain: MASSPGNTNPHNTPPFDLGILFKPSSNPYPPPAASYPPPTGPFLHNQYDQQHYAPPGISAQPSPVTQQQQDVSSSSAATNLHPQRTLSYPTPPLNLQSPRSNHNPGTHILALLNNTNNGAPVANQEPSHQLPVVNHNEIARSFPGGSGPIRVPSCKLPKGRRLIGEHAVYDVDVRLQGEIQPQLEVTPITKYGSDPQLVVGRQIAVNKVYICYGLKGGNIRVLNINTALRSLFRGHSQRVTDMAFFAEDVDMLASVSLDGKVFVWKISEGSEGEDQPQITGKIVLALQILGEEDTKHPRVCWHCHKQEILVVSIGKHVLRIDTTKVGRGEVFSAEAPLQCPLDKLIDGVQIVGKHDGEVTDLSMCQWMTTRLVSSSVDGTIKIWQDRKAQPLVVLRPHDGHPVSSATFVTSPERPDHIILITGGPLNREMKIWVSAGEEGWLLPADAESWRCTQTLDLKSSTEPRAEEAFFNQVIALSEAGLLLLANAKRNALYAVHLDYGSSPVGTRMDYLSEFTVTMPILSFIGTNDPPEEPIVKVYCVQTLAIQQYTLDLCLCLPPPIENMGLEKSDSSVSREANLVEGMSEPSGLKPTDLPSVDSVPKPSIIVNRSESANKLSFPSAEATSQAIVPPNGEPKTSGLPSQTSGAGSAYATLPQLPLSPRLSSKLSGYHTPVEAIEPVIPHHELGGKTPSADYSVDRQMDAVGERNLDVSSVEEISRSKDSNVTPDDDVSGMRSPSAFFKHPTHLVTPSEILMGVSSAEASITTEDRRDRDANIQDVNNDPRDTEVEVKEISEARSTQNGEINDHDETENCTSENREKVFCSQVSNLSTEMARDCYPSTEGTFIPGESKAYGQPIKAGDESGVDSRGGPAKLLKGKKQKAKNSQGPGLSSTSSNVANLADSFNEQSQSLSHPMTDLLPQLLAMQETMNQVMASQKEMQRQLSNAATGPIGKESKRLEVALGRMIEKSSKSNADALWARIQEETVKNEKALRDHAQQIVNATTNFMSKELNAMFEKTIKKELAAIGPALARSVVPVIEKTVSSAITESFQRGIGDKAVNQLDKSVNIKLEATVARQIQAQFQTSGKQALQEGLRSSVESSVIPSFEKACKAMFDQIDSAFQKGIAEHTNAAQQRFDSGHSQLAHTLKESITSASSVAQALSRELAETQRNLLALAAAGANSGGSNSLVTQLSGGPLGALLEKVEAPMDPTTELSRLISERKYEESFTSALQRSDVSIVSWLCSQVDLRGLLAMNPLPLSQGVLLSLLQQLACDISKDTSRKLAWMTDVVAAINPSDQMIAVHARPIFEQVYQILHHHRNAPGSDVSAIRLIMHVINSMLMGCK
In the case of B1, the “GFPabc mRNA level by qRT-PCR in N. benthamiana leaves co-infiltrated with pGFPabc, pVCS and pTAV against pTAV alone” value is reported as 3 fold.
